# Target: alcohol dehydrogenase (ADH)
# Test: cell-based or functional assay
substance,measurement,value
CryS96 (αB-crystallin peptide fused with ELP S96),"decrease in ADH aggregation (optical density at 360 nm, 48° C., 2 h)",61%

# — patent US20210054048A1
